B2: IL-10Rβ (monomer) (receptor, human, UniProt Q08334 20-220, looked up)
chain: MVPPPENVRMNSVNFKNILQWESPAFAKGNLTFTAQYLSYRIFQDKCMNTTLTECDFSSLSKYGDHTLRVRAEFADEHSDWVNITFCPVDDTIIGPPGMQVEVLADSLHMRFLAPKIENEYETWTMKNVYNSWTYNVQYWKNGTDEKFQITPQYDFEVLRNLEPWTTYCVQVRGFLPDRNKAGEWSEPVCEQTTHDETVPS
notes: Soluble receptor expressed in Hi5 insect cells; also called IL-10 Receptor Beta; IL-10R2

For assay [1], the target named is T1, IFNλR1/IFNAR1 receptor dimer (on Hap1 cells) (UniProt Q8IU57 21-520; P17181 28-557, limits assumed).
T1 sequence (looked up) 1: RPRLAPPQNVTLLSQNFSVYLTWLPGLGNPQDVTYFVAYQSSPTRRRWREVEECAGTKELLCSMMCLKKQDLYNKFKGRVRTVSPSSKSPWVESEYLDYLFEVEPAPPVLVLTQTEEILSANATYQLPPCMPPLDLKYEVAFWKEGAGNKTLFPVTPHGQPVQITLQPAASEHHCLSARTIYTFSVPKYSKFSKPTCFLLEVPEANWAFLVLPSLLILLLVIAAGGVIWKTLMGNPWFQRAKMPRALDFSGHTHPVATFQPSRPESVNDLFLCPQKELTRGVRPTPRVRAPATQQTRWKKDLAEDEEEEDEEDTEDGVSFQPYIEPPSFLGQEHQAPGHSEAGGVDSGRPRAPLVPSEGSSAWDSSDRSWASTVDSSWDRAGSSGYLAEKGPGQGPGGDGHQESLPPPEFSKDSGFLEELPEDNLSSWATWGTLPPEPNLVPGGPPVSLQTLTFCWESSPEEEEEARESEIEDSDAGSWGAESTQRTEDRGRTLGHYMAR
T1 sequence (looked up) 2: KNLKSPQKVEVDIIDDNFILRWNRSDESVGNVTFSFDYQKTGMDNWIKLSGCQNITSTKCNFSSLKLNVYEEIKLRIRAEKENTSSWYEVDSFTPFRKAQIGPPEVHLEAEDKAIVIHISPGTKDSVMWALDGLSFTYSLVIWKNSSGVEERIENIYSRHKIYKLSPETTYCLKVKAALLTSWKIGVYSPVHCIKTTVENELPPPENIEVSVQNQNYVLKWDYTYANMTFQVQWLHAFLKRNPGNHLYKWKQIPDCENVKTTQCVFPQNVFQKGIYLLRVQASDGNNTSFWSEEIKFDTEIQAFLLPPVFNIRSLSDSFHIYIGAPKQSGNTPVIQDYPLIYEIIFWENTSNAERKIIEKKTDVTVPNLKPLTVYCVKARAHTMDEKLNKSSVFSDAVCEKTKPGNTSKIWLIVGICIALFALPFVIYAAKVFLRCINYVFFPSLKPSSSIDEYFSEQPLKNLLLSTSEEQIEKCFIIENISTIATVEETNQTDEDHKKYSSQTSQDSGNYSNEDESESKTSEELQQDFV
The experiment in a line: cell-based or functional assay.

Assay [2] has as its target T2, H11/IFN-λR1 binary complex (human, UniProt Q8IU57 21-228, limits assumed).
T2 construct: Complex of m2 and m3, immobilized for SPR; also called IFN-λ3 H11/IFN-λR1 binary complex; H11-containing binary complex
T2 sequence 1: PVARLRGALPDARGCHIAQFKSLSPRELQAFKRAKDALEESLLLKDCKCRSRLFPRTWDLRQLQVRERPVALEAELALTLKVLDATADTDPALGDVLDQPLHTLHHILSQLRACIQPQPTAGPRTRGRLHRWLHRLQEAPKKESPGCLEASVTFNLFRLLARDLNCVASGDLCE
T2 sequence 2: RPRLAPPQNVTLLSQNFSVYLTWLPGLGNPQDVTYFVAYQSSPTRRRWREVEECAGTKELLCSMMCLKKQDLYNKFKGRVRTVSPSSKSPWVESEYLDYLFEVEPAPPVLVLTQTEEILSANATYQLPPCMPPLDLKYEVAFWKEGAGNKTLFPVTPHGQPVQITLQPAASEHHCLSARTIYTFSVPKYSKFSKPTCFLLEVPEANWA
Kind of assay: SPR, equilibrium fit, immobilized binary complexes. As to the method: (§1) KD values were determined by fitting to a first order equilibrium binding model.
(§2) Surface plasmon resonance. GE Biacore T100 was used to measure the KD by either kinetic (type I IFNs) or equilibrium (type III IFNs) methods. Approximately 100 RU of each of the receptors of were captured on a Biotin CAP-chip (GE) including a reference channel of an unrelated cytokine receptor (IL-2Rβ).
On the technique in general: SPR reads the build-up and loss of mass on a sensor chip optically.

Assay [3] has as its target T3, wild-type IFN-λ3/IFN-λR1 binary complex (human, UniProt Q8IU57 21-228, limits assumed).
T3 construct: Complex of m1 and m3; In SPR it was the immobilized binary complex; also called IFN-λ/IFN-λR1 binary complex; wild-type IFN-λR1/IFN-λ3
T3 sequence 1: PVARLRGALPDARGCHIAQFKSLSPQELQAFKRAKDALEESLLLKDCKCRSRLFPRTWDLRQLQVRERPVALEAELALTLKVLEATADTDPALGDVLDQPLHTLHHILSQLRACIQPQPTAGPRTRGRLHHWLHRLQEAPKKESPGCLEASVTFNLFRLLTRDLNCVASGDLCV
T3 sequence 2: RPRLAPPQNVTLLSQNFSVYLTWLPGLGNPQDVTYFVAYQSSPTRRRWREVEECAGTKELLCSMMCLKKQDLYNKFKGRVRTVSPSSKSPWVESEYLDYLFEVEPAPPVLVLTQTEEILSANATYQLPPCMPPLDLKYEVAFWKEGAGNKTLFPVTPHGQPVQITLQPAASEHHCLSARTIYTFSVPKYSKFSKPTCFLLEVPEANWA
The experiment in a line: surface plasmon resonance, equilibrium fit; binary complex on the sensor chip, IL-10Rβ as analyte up to 100 uM. As to the method: as §1, §2

Assay [4] deals with T2, H11/IFN-λR1 binary complex. Kind of assay: SPR, equilibrium fit, immobilized H11/IFN-λR1 binary complex; SPR; IL-10Rβ over the immobilized H11/IFN-λR1 binary complex. As to the method:
as §1, §2

In assay [5] the target is T4, IFN-λR1 (human, UniProt Q8IU57 21-228, limits assumed).
T4 construct: Soluble receptor expressed in Hi5 insect cells; It was captured on a Biotin CAP chip for SPR and used as streptavidin tetramers or soluble protein in the yeast assays; For crystallography it was expressed in HEK293 GnTI- cells and deglycosylated with EndoF and EndoH; also called IL-28RA; IFNλ Receptor 1
T4 sequence (looked up): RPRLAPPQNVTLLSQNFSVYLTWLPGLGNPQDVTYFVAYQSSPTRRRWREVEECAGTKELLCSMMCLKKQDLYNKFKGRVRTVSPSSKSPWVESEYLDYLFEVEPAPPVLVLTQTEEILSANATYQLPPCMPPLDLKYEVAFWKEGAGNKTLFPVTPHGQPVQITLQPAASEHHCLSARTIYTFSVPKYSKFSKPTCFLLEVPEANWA
The experiment in a line: SPR, equilibrium fit; wild-type IFN-λ3 binding IFN-λR1. As to the method:
as §1, §2

Assay [6] deals with T4, IFN-λR1. The experiment in a line: yeast surface display titration with IFN-λR1, flow cytometry (FIG. 7B legend gives KD=400 nM). On the technique in general: In flow cytometry, cells or beads pass a laser one at a time.
Assay [7] concerns the target T5, IL-10Rβ streptavidin tetramers (human, UniProt Q08334 20-220; P22629 37-163).
T5 construct: Same receptor as m4, multimerised on streptavidin for staining of yeast; also called avidity-enhanced tetrameric form of IL-10Rβ; IL-10Rβ tetramer
The experiment in a line: flow cytometry of yeast displaying IFN-λ3, no IFN-λR1 present. On the procedure:
as §1
(§3) We used yeast surface display as a platform for engineering a higher affinity IFN-λ.

Assay [8] deals with B2. The assay is described as above. As to the method: as §1, §3
Assay [9] has as its target T6, heterodimeric receptor composed of IL-10Rβ and IFN-λR1 (on cells) (human, UniProt Q8IU57 21-520; Q08334 20-325).
T6 sequence (looked up) 1: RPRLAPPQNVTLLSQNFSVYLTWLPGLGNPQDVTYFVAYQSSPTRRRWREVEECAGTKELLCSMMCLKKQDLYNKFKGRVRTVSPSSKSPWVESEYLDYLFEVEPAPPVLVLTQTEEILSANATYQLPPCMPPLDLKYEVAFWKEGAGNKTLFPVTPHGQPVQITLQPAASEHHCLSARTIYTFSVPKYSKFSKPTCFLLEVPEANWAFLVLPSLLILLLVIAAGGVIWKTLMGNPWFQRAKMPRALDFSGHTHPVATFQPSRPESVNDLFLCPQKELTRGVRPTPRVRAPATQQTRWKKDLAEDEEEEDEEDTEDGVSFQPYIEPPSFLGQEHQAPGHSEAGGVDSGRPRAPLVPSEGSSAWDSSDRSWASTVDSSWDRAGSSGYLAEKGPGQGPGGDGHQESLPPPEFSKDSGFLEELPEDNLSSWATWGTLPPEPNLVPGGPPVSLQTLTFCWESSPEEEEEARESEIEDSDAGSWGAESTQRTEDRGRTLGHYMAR
T6 sequence (looked up) 2: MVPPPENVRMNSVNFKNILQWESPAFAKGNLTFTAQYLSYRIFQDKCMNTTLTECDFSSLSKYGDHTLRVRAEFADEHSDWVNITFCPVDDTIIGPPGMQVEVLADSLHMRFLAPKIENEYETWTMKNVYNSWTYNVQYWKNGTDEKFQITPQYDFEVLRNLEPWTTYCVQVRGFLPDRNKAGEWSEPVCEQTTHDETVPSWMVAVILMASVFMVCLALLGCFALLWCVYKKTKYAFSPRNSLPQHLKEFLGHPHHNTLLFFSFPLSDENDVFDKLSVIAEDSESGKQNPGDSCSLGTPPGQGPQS
The experiment in a line: cell-based or functional assay.

The target of assay [10] is B2. The experiment in a line: yeast-surface titration with IL-10Rβ (affinity maturation was done with soluble IFN-λR1 bound to the displayed cytokine); on-yeast titration, H11 displayed on yeast; presence of IFN-λR1 not stated for the titration.
Assay [11] concerns the target T4, IFN-λR1. The experiment in a line: SPR, equilibrium fit. As to the method: as §1, §2
Assay [12] addresses T4, IFN-λR1. The experiment in a line: SPR, equilibrium fit; H11 (carries Thr150Ala) binding IFN-λR1. As to the method: as §1, §2

Four molecules from US20190225665A1 (Stanford University, published 2019) can be followed below.

For orientation: Kd means a measure of binding affinity in units of concentration.

T5 sequence (P22629 37-163, one chain of several): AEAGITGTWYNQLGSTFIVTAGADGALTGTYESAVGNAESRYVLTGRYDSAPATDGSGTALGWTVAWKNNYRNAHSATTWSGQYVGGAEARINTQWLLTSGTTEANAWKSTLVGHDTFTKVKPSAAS

B1: Synthekine 2 (designed binder)
chain: ARGCHIAQFKSLSPAELQAFKRAKDALEESLLLKDCKCRSRLFPRTWDLRQLQVRERPVALEAELALTLKVLEATADTDPALGDVLDAPLATLHHILSQLRACIQPQPTAGPRTRGRLHRWLHRLQEAPKKESPGCLEASVTFNLFRLLARDLNCVASGDLCEGSGSGLGCDLPQNHGLLSANTLVLLHQMRRISPFLCAKDARDFRFPQEMVKGSQLQKAHVMSVLHEMLQQIFSLFHTERSSAAWNMTLLDQLHTGLHQQLQHLETCLLQVVGEGESAGAISSPALTLRRYFQGIRVYLKEKKYSDCAWEVVRMEIMASLFLSTNMQERLRSKDRDLGSSAAAHHHHHH
Take B1: in [1], the “Emax of phospho-STAT1 activation in Hap1 cells” value was 2 fold of the signal induced by type III IFNs.

For the molecule B2, the “fold increase in IL-10Rβ affinity against the wild-type IFN-λ3/IFN-λR1 binary complex” value in assay [2] worked out at 30 fold. Moreover, the Kd turned out to be 16000 nM in assay [3] and 560 nM in assay [4].

B3: wild-type IFN-λ3 (ligand)
chain: PVARLRGALPDARGCHIAQFKSLSPQELQAFKRAKDALEESLLLKDCKCRSRLFPRTWDLRQLQVRERPVALEAELALTLKVLEATADTDPALGDVLDQPLHTLHHILSQLRACIQPQPTAGPRTRGRLHHWLHRLQEAPKKESPGCLEASVTFNLFRLLTRDLNCVASGDLCV
notes: For SPR it was expressed in Hi5 insect cells; also called IL-28B; IFN-λ3 wt
B3: the values for the Kd with IFN-λR1 [5] and with IFN-λR1 [6] were 850 nM and ~400 nM, respectively. The binding result (in assay [7]; in the assay with IL-10Rβ (monomer) [8]) was “no binding” each time.

B4: IFN-λ3 H11 (ligand)
chain: PVARLRGALPDARGCHIAQFKSLSPRELQAFKRAKDALEESLLLKDCKCRSRLFPRTWDLRQLQVRERPVALEAELALTLKVLDATADTDPALGDVLDQPLHTLHHILSQLRACIQPQPTAGPRTRGRLHRWLHRLQEAPKKESPGCLEASVTFNLFRLLARDLNCVASGDLCE
notes: also called engineered IFN-λ3 H11
As to B4, the “EC50 for phospho-Stat1 on Hap1 cells, fold improvement over wild-type IFN-λ3” value in assay [9] was 100 fold. The “anti-viral potency on Huh7.5 cells infected with HCV, fold over wild-type IFN-λ3” value in [9] was 12 fold. For the same molecule, the Kd with IL-10Rβ (monomer) [10] was 200 nM; with IFN-λR1 [12], 150 nM. The “fold higher affinity against wild-type IFN-λ3” value in the assay with IFN-λR1 [11] was ~5 fold.
